Experimental findings from IntAct's records for PubMed 25006247 are described below.

B1: Pyrin (Homo sapiens), O15553 (parent)
chain: MAKTPSDHLLSTLEELVPYDFEKFKFKLQNTSVQKEHSRIPRSQIQRARPVKMATLLVTYYGEEYAVQLTLQVLRAINQRLLAEELHRAAIQEYSTQENGTDDSAASSSLGENKPRSLKTPDHPEGNEGNGPRPYGGGAASLRCSQPEAGRGLSRKPLSKRREKASEGLDAQGKPRTRSPALPGGRSPGPCRALEGGQAEVRLRRNASSAGRLQGLAGGAPGQKECRPFEVYLPSGKMRPRSLEVTISTGEKAPANPEILLTLEEKTAANLDSATEPRARPTPDGGASADLKEGPGNPEHSVTGRPPDTAASPRCHAQEGDPVDGTCVRDSCSFPEAVSGHPQASGSRSPGCPRCQDSHERKSPGSLSPQPLPQCKRHLKQVQLLFCEDHDEPICLICSLSQEHQGHRVRPIEEVALEHKKKIQKQLEHLKKLRKSGEEQRSYGEEKAVSFLKQTEALKQRVQRKLEQVYYFLEQQEHFFVASLEDVGQMVGQIRKAYDTRVSQDIALLDALIGELEAKECQSEWELLQDIGDILHRAKTVPVPEKWTTPQEIKQKIQLLHQKSEFVEKSTKYFSETLRSEMEMFNVPELIGAQAHAVNVILDAETAYPNLIFSDDLKSVRLGNKWERLPDGPQRFDSCIIVLGSPSFLSGRRYWEVEVGDKTAWILGACKTSISRKGNMTLSPENGYWVVIMMKENEYQASSVPPTRLLIKEPPKRVGIFVDYRVGSISFYNVTARSHIYTFASCSFSGPLQPIFSPGTRDGGKNTAPLTICPVGGQGPD

The first assay covers variants of B1. Particulars: with asc_human PYCARD.
R80A: the “effect of a mutation on the interaction” value was “decreasing interaction strength”.

For the variant R75A, the “effect of a mutation on the interaction” value was “decreasing interaction strength”.

Consider L10A, for which the “effect of a mutation on the interaction” value is reported as “decreasing interaction strength”.

With K3A, the “effect of a mutation on the interaction” value is “with no effect”.

Consider E84A, for which the “effect of a mutation on the interaction” value is listed as “with no effect”.

As for Q46A, the “effect of a mutation on the interaction” value is given as “with no effect”.

As to A89T, the “effect of a mutation on the interaction” value is “with no effect”.

As for E14A, the “effect of a mutation on the interaction” value is reported as “decreasing interaction strength”.

On to Q29A, for which the “effect of a mutation on the interaction” value is recorded as “with no effect”.

With K35A, the “effect of a mutation on the interaction” value is listed as “with no effect”.

Turning to R88A, the “effect of a mutation on the interaction” value is reported as “with no effect”.

For R49A, the “effect of a mutation on the interaction” value is reported as “with no effect”.

In the case of E22A, the “effect of a mutation on the interaction” value was “increasing interaction strength”.

As to E63A, the “effect of a mutation on the interaction” value is reported as “increasing interaction strength”.

In the case of V58A, the “effect of a mutation on the interaction” value is “increasing interaction strength”.

In the case of L71A, the “effect of a mutation on the interaction” value was “decreasing interaction strength”.

As for R42A, the “effect of a mutation on the interaction” value is “decreasing interaction strength”.

In the case of R42W, the “effect of a mutation on the interaction” value is “decreasing interaction strength”.

As for K25A, the “effect of a mutation on the interaction” value is listed as “disrupting interaction strength”.

Turning to H37A, the “effect of a mutation on the interaction” value is “with no effect”.

The variants in a further assay derive from B1. The following applies: with asc_human PYCARD. This is another data set of the same source.
Turning to R42W, the “effect of a mutation on the interaction” value is on record as “with no effect”.
